# In the DeepSol protein solubility set:
# Experiment: soluble on expression in E. coli; label from the status in PepcDB or PDB records
row,Sequence,soluble on expression in E. coli
1,MGSDKIHHHHHHMKETSRKSGASAAKGKVIITCAVTGAIHTPTMSPYLPITPDQIASEAIAAAQAGAAILHLHARDPETGKPDQTPEAFARFLPRVKQGTNAAINITTGGSPYMKVEERVRPAAQFKPEVASLNMGSINFGLYHLADKYETFKFDWEKPHLEATRDLVFRNSFKDIEYILATCYDNGTRFEFECYDIAHLYNLSHFADRGLVKPPFFVQSVFGLLGGIGTHPEDVAHMKRTADRLFGDQFRWSVLGAGASQLRIAAQSAALGGNIRVGLEDSLWAGKGKLAKSNAEQVVLARKIIEGLGMEVATPDEAREILSLKGGDKVAF,not soluble
2,DRETAPTIKINQITLRYSANQEPVLSGVSADIESGDCVAVIGPNACGKTSLLLSLLGVVEPQAGFIMVNNKNLKQYDPETFREYAGYCPAEPDLFPGTLADNLRIAKPDATDEELIAALKHAGGESLFIALNSNLNIMLENNASNMLSAVEGSYINLARAFLKKSNFIILDEPLANRNPQARKAFSNTILALKGKATIVFSSHDPELIKLADKVIVLDKGSVVYAGPIPEKNSQEMESSNHE,not soluble
3,MQLTESLGIVLFNRNYREDDKLVKIFTEVAGKQMFFVKHISRSKMSSIIQPLTIADFIFKLNDTGLSYVVDYSNVNTYRYINNDIFRLAYASYVLALADAAIADNESDSHLFTFLKKTLDLMEEGLDYEILTNIFEIQILDRFGISLNFHECAICHRTDLPLDFSHRFSAVLCSEHYYKDNRRNHLDPNVIYLLSRFQKITFDDLRTISLNKDIKKKLRQFIDELYHDYVGIKLKSKTFIDNLVKWGDIMK,not soluble
4,IFNVPFGLNINLLPQYHMYTTQEAKDKIYYYSGNKVGFDIGASAQIGYMWQVTDNFGISLLGELGYSFDSFNANFDTAKVENPNDITGQIDAPEGTQKLGSASFYTHNLKIGILPKFNIKAFSIGIGLGIIVPMAITQNWKDEAAKTLFKDASTKFMSSVGFYGKLTFDYSIFFTEKIAMNIGLYTGVDAIGSINTTINNTSLNQGAHSEAPLLSYDIGLQLGFRFGPKAFN,not soluble
5,MGSDKIHHHHHHMESITLTADLDALAKTSAFITAAAERCGLDERATWQVQLAVDEAVTNVIQHAYDPDQPGDFTLSWQCHDQRFIVTVRDHGRQFDPSTVPVPDITSPLEERQVGGLGIYLITRLMDEVHFEFSPQGGNLLTMVKYLPSDQAEEANEVVVIPINDRIDALTAPRLSKTVNEQISQGARQIVLDFSNVPFLSSSGLRALLLIRKELMTLGGELRLAALQPQVHEVFTITGFTQVFNIHPSVTEARAAFSQRR,not soluble
6,MAKLTRLGDLERAVMDHLWSRTEPQTVRQVHEALSARRDLAYTTVMTVLQRLAKKNLVLQIRDDRAHRYAPVHGRDELVAGLMVDALAQAEDSGSRQAALVHFVERVGADEADALRRALAELEAGHGNRPPAGAATET,soluble
7,MEALKIALLGGGTVGSAFYNLVLERAEELSAFGVVPRFLGVLVRDPRKPRAIPQELLRAEPFDLLEADLVVEAMGGVEAPLRLVLPALEAGIPLITANKALLAEAWESLRPFAEEGLIYHEASVMAGTPALSFLETLRGSELLELHGILNGTTLYILQEMEKGRTYAEALLEAQRLGYAEADPTLDVEGIDAAHKLTLLARLLVDPGFPFAEVEAQGIARLTPEVLQKAEARGERVRLVASLFGEGGRWRAAVAPRRLPQDHPLARARGNALWVRARPLGEAFVTGPGAGGGATASGLFADLLRFLSGAPGHLPAPRARPPLEEGSPWPGVE,soluble
8,MSKIDFHTHYLPTSYVEALKRHVPGDPDGWPTPEWTPQLTLNFMRDNDISYSILSLSSPHVNFGDKAETIRLVEAANDDGKSLAQQYPDQLGYLASLPIPYELDAVKTVQQALDQDGALGVTVPTNSRGLYFGSPVLERVYQELDARQAIVALHPNEPAILPKNVDIDLPVPLLGFFMDTTMTFINMLKYHFFEKYPNIKVIIPHAGAFLGIVDDRIAQYAQKVYQVDVYDVMHHVYFDVAGAVLPRQLPTLMSLAQPEHLLYGSDIPYTPLDGSRQLGHALATTDLLTNEQKQAIFYDNAHRLLTELEHHHHHH,soluble
9,MSNENKTIHDFELNLICDFFSNMERQGPGSPEVTLKALSFIDNLTEKSLIADIGCGTGGQTMVLAGHVTGQVTGLDFLSGFIDIFNRNARQSGLQNRVTGIVGSMDDLPFRNEELDLIWSEGAIYNIGFERGLNEWRKYLKKGGYLAVSECSWFTDERPAEINDFWMDAYPEIDTIPNQVAKIHKAGYLPVATFILPENCWTDHYFTPKVAAQKIFLTKYAGNKIAEEFSMLQSIEEELYHKYKEYYGYTFFIAKKIRLLEHHHHHH,soluble
10,MDFWPEFMATSWGREFVAGGFGGVAGIISGYPLDTLRIRQQQSSKSGSAFSILRRMLAIEGPSSLYRGMAAPLASVTFQNAMVFQIYAIFSRSFDSSVPLVEPPSYRGVALGGVATGAVQSLLLTPVELIKIRLQLQQTKSGPITLAKSILRRQGLQGLYRGLTITVLRDAPAHGLYFWTYEYVRERLHPGCRKTGQENLRTMLVAGGLAGVASWVACYPLDVVKTRLQQGHGAYEGIADCFRKSVKQEGYTVLWRGLGTAVARAFVVNGAIFAAYEVALRCLFNQSPSPDIVTGD,soluble
11,MGSDKIHHHHHHMGFRNVIITQHSKLSYSNNAMIVQNKDGINQIPLVDMDILLISTTQAVITSALVSKLAESGIKVIFTDNKNEPVTETVNYYPNNRSLDTYLQQYEWNDHVKEILWTKIVRSKIINQIKVLKNYQIDCQDLKIELDKLEINDMTNREAVVARKYFEKLFGNKYSRKDFTPMNAALNYGYSILLSAVNKEIVSAGYVTYLGIHHQSQENMFNFGSDLMESFRPVVDYWLADKNFLEFTPDIKYGLVDLLNLEIKYNKKQMLLKNAITKYVRDVIEYLNQETVEFDMEVEFTNEVPNNAINDNI,not soluble
12,MTYHLQGTTGYGLGDSGRETLDRVMARILGTEAALVRGQFVSGTHAIATALFGVLRPGDHFISVTGDPYDTLEEVIGIRGTGQGSLKDFGVSYDSVPLSEEGTIQHSLVSQGIKPNTKMLILQRSRGYAWRNSLPMEQIAAFVAYVREHFPHLIIFVDNCYGELVEKCEPGDVGADLMAGSLIKNLGGSLAPTGGYIAGRQELVEKAACRLTAPGIGGEVGATLSWQLQFFQGLFFSPLEHHHHHH,not soluble
13,MSQLFVRTGITFDSSQQALAHIGKEMLAKGVVHDSYPQALVEREASFPTGIALERHAVAIPHCEAVHAKSPAIYLIRPDKPVMFQQADDDEEIAVSLIIALIVENPAAQLKLLRRLFSELQNPSTLDALLSAPDAELAIRFQETILEPEQCVQV,not soluble
14,SMSKRTFSTVLPQIDTTGQLFVQTRKGQEVLIKVKHFMKQHILPAEKEVTEFYVQNENSVDKWGKPLVIDKLKEMAKVEGLWNLFLPAVSGLSHVDYALIAEETGKCFFAPDVFNCQAPDTGNMEVLHLYGSEEQKKQWLEPLLQGNITSCFCMTEPDVASSDATNIECSIQRDEDSYVINGKKWWSSGAGNPKCKIAIVLGRTQNTSLSRHKQHSMILVPMNTPGVKIIRPLSVFGYTDNFHGGHFEIHFNQVRVPATNLILGEGRGFEISQGRLGPGRIHHCMRTVGLAERALQIMCERATQRIAFKKKLYAHEVVAHWIAESRIAIEKIRLLTLKAAHSMDTLGSAGAKKEIAMIKVAAPRAVSKIVDWAIQVCGGAGVSQDYPLANMYAITRVLRLADGPDEVHLSAIATMELRDQAKRLTAKI,soluble
15,MGHHHHHHSHMRKLVIPKYYGRPSIGLALFGCTNRPFYHVCVFPDRALGRRYEGNILEQVGTFDPLPNQKNEKLVALNFGRLKYWIGERNAHISVPVLELLGERRNCLSGLFPIHPKSFIRAKDNRALIADQQLKVAAEAAEAEKVAQEQASTGAAATSHPQ,soluble
